For test [1], the target named is human FGFR1c/KLB receptor complex on iLite FGF21 Assay Ready Cells (human, UniProt P11362 22-822; Q86Z14 1-1044). The test can be described thus: cell-based or functional assay.
For test [2], the target named is T1, human beta-Klotho (KLB) (human, UniProt Q86Z14 53-997).
T1 construct: bought protein, used as analyte in the off-rate screening; also called human KLB; β-Klotho
T1 sequence (looked up): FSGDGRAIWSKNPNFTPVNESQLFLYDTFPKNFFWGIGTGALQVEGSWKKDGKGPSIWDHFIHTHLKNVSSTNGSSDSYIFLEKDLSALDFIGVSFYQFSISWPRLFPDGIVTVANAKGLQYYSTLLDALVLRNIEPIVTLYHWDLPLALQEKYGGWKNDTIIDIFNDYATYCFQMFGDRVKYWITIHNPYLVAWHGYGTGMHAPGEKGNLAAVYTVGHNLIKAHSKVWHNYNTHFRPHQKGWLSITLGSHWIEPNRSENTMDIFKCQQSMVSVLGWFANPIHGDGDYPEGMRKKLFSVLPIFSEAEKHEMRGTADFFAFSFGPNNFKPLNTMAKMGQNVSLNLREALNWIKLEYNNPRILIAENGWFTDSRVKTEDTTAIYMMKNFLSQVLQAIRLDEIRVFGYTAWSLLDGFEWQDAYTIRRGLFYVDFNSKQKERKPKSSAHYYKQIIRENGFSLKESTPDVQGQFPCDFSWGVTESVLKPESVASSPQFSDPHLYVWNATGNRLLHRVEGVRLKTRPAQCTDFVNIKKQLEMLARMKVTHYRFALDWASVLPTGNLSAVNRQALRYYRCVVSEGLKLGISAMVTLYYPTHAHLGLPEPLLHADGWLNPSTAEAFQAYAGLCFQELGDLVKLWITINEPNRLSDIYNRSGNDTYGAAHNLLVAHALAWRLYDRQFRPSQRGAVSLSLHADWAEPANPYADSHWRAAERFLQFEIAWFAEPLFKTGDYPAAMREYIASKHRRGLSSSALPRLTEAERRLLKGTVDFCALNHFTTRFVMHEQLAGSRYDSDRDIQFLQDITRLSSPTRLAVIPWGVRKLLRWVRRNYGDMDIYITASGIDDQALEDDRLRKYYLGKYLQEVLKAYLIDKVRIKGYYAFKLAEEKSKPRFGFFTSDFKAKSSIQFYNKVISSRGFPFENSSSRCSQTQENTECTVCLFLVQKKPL
The test can be described thus: BLI off-rate screening, mAb captured, KLB analyte.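 Note: Off-rate taken from the dissociation phase, biosensors held in D-PBS with 0.1% BSA over 1800 s, antibody supernatants diluted to 25 µg/mL.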

The target in test [3] is T2, human beta-Klotho (KLB) (human, UniProt Q86Z14 53-997).
T2 construct: Bought soluble protein; also called human KLB; ß-Klotho
T2 sequence (looked up): T1 sequence (looked up)
The test can be described thus: BLI off-rate screen, supernatant.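 Note: expression supernatants tested at 25 µg/mL, dissociation followed for 1800 s in D-PBS with 0.1% BSA.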

The target of test [4] is cell surface receptor composed of FGFR1c and co-receptor beta-Klotho (KLB) (human, UniProt P11362 22-822; Q86Z14 1-1044). The test can be described thus: cell-based or functional assay.
Chain of cell surface receptor composed of FGFR1c and co-receptor beta-Klotho (KLB) (P11362 22-822, chain 1 of 2): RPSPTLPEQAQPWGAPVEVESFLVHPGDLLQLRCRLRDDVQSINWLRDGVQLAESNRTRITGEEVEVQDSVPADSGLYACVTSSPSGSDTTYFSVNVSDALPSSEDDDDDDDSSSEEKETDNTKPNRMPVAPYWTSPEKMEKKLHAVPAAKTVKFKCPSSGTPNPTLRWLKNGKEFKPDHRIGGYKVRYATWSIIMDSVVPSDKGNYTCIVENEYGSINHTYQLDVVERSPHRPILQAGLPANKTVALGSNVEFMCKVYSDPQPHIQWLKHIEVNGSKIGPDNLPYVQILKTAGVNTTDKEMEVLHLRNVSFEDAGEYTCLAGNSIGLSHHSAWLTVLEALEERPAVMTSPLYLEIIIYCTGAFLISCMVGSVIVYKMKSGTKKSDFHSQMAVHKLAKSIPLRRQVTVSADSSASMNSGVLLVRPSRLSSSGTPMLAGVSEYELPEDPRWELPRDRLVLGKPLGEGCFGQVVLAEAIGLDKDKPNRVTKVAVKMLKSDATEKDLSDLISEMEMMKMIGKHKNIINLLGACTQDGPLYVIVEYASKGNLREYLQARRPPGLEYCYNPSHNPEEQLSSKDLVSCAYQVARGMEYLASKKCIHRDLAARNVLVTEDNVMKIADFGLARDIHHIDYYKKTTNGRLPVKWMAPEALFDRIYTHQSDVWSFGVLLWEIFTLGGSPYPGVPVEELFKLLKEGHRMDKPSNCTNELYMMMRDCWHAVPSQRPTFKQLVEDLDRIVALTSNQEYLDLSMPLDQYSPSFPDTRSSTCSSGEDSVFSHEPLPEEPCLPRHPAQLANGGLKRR
Chain of cell surface receptor composed of FGFR1c and co-receptor beta-Klotho (KLB) (Q86Z14 whole entry, chain 2 of 2): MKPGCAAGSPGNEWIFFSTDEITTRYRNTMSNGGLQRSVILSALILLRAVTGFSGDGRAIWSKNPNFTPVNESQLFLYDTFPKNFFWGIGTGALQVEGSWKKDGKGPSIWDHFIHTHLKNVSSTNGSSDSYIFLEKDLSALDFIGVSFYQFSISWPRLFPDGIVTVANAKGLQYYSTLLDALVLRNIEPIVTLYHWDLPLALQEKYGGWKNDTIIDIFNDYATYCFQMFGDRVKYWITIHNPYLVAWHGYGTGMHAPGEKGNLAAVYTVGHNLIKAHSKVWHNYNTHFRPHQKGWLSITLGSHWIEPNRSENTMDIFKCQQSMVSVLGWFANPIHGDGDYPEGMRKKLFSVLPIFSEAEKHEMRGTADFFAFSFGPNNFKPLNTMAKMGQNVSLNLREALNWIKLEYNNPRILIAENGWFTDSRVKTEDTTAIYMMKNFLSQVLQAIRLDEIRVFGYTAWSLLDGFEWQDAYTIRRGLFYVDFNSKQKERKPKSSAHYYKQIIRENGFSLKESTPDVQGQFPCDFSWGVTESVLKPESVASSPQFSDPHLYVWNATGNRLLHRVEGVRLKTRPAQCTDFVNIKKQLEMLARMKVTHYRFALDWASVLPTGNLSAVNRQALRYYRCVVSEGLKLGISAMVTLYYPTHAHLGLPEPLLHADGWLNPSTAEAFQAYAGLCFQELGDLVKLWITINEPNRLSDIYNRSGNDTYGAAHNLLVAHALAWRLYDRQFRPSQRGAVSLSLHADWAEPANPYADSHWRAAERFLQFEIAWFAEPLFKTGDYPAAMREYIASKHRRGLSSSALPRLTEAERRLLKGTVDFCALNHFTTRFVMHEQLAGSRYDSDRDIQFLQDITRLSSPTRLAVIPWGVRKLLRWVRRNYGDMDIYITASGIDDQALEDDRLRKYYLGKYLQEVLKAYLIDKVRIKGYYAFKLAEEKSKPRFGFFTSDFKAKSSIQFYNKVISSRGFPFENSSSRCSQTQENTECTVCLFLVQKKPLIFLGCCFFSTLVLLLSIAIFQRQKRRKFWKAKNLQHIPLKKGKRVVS

Changes are numbered by the printed parent chain. Names and notes keep the numbering of the source.
Throughout, for Mean E max (%): reference of the scale not given here.
Throughout, for Mean E max, Luciferase reporter gene assay: reference of the scale not given here.

Chain of human FGFR1c/KLB receptor complex on iLite FGF21 Assay Ready Cells (P11362 22-822, chain 1 of 2): as the sequence (P11362 22-822, chain 1 of 2) above
Chain of human FGFR1c/KLB receptor complex on iLite FGF21 Assay Ready Cells (Q86Z14 whole entry, chain 2 of 2): as the sequence (Q86Z14 whole entry, chain 2 of 2) above

B1: 16H7 variant with light chain substitution P54R (antibody, V domains shown)
VH: not shown
VL: SYVLTQPPSVSVAPGQTARITCGGNNIGSESVHWYQQKPGQAPVLVVYDDSDRRSGIPERFSGSNSGNTATLTISRVEAGDEADYYCQVWDGNSDHVVFGGGTKLTVLG
Regarding B1, in test [1], the “Mean E max (%)” value is 104% and the “Mean EC50” value amounted to 0.111 nM. Also, the dissociation rate constant (koff) (usually the first-order rate constant of dissociation) with human beta-Klotho (KLB) [2] stood at 0.00011 s⁻¹.

B2: 16H7 variant with light chain substitution D52Q (antibody, V domains shown)
VH: not shown
VL: B1 VL with D52Q, R54P
As to B2, in test [1], the “Mean E max (%)” value turned out to be 101% and the “Mean EC50” value was determined as 0.107 nM. In the test with human beta-Klotho (KLB) [2], this molecule returned a koff of 2.7e-05 s⁻¹.

B3: 16H7 variant with light chain substitution D52M (antibody, V domains shown)
VH: not shown
VL: B1 VL with D52M, R54P
Regarding B3, in test [1], the “Mean E max (%)” value turned out to be 105% and the “Mean EC50” value was determined as 0.144 nM. In the test with human beta-Klotho (KLB) [2], this molecule displayed an off-rate (koff) of 2.4e-05 s⁻¹.

B4: 16H7 variant with light chain substitution D52A (antibody, V domains shown)
VH: not shown
VL: B1 VL with D52A, R54P
On to B4, for which, in test [1], the “Mean E max (%)” value was 101% and the “Mean EC50” value is 0.163 nM. For the same molecule, the koff with human beta-Klotho (KLB) [2] is 4.8e-05 s⁻¹.

B5: 16H7 variant with light chain substitution D52F (antibody, V domains shown)
VH: not shown
VL: B1 VL with D52F, R54P
B5: in test [1], the “Mean E max (%)” value was found to be 102% and the “Mean EC50” value was found to be 0.105 nM. In addition, the off-rate constant (koff) with human beta-Klotho (KLB) [2] amounted to 7.9e-06 s⁻¹.

B6: 16H7 light chain variant S31W (antibody, human IgG4 S228P, lambda, V domains shown)
VH: not shown
VL: B1 VL with S31W, R54P
In the test with human beta-Klotho (KLB) [3], B6 registered a koff of 0.00034 s⁻¹. Also, in test [4], the “Mean E max, Luciferase reporter gene assay” value worked out at 103% and the “Mean EC50, Luciferase reporter gene assay” value worked out at 0.178 nM.

B7: 16H7 variant with light chain substitution D52I (antibody, V domains shown)
VH: not shown
VL: B1 VL with D52I, R54P
With B7, in test [1], the “Mean E max (%)” value was 110% and the “Mean EC50” value amounted to 0.14 nM. This molecule returned a koff with human beta-Klotho (KLB) [2] of 2.8e-05 s⁻¹.

B8: 16H7 variant with light chain substitution D52L (antibody, V domains shown)
VH: not shown
VL: B1 VL with D52L, R54P
As for B8, in test [1], the “Mean E max (%)” value was 106% and the “Mean EC50” value is 0.107 nM. The koff with human beta-Klotho (KLB) [2] stood at 5.7e-05 s⁻¹.

B9: 16H7 light chain variant S31V (antibody, human IgG4 S228P, lambda, V domains shown)
VH: not shown
VL: B1 VL with S31V, R54P
On to B9, for which the koff with human beta-Klotho (KLB) [3] came out at 6.6e-05 s⁻¹. In test [4], the “Mean E max, Luciferase reporter gene assay” value was found to be 100% and the “Mean EC50, Luciferase reporter gene assay” value was found to be 0.106 nM.

B10: 16H7 variant with light chain substitution D52N (antibody, V domains shown)
VH: not shown
VL: B1 VL with D52N, R54P
B10: in test [1], the “Mean E max (%)” value is 115% and the “Mean EC50” value stood at 0.124 nM. The molecule also registered a koff with human beta-Klotho (KLB) [2] of 6.9e-07 s⁻¹.

B11: 16H7 variant with light chain substitution D52G (antibody, V domains shown)
VH: not shown
VL: B1 VL with D52G, R54P
Consider B11, for which, in test [1], the “Mean E max (%)” value is 109% and the “Mean EC50” value came to 0.125 nM. For the same molecule, the koff with human beta-Klotho (KLB) [2] stood at 3.7e-05 s⁻¹.

B12: 16H7 variant with light chain substitution D52R (antibody, V domains shown)
VH: not shown
VL: B1 VL with D52R, R54P
Take B12: in test [1], the “Mean E max (%)” value came to 96% and the “Mean EC50” value was 0.091 nM. For the same molecule, in the test with human beta-Klotho (KLB) [2], the koff worked out at 2.9e-05 s⁻¹.

B13: 16H7 variant with light chain substitution D52K (antibody, V domains shown)
VH: not shown
VL: B1 VL with D52K, R54P
Consider B13, for which, in test [1], the “Mean E max (%)” value is 101% and the “Mean EC50” value was found to be 0.117 nM. Moreover, the off-rate (koff) in the test with human beta-Klotho (KLB) [2] was 9.2e-05 s⁻¹.

B14: 16H7 variant with light chain substitution D52E (antibody, V domains shown)
VH: not shown
VL: B1 VL with D52E, R54P
For the molecule B14, in test [1], the “Mean E max (%)” value was 123% and the “Mean EC50” value turned out to be 0.114 nM. Also, the off-rate constant (koff) with human beta-Klotho (KLB) [2] worked out at 1e-07 s⁻¹.

B15: 16H7 variant with light chain substitution D52H (antibody, V domains shown)
VH: not shown
VL: B1 VL with D52H, R54P
With B15, in test [1], the “Mean E max (%)” value stood at 97% and the “Mean EC50” value turned out to be 0.109 nM. Besides, in the test with human beta-Klotho (KLB) [2], the koff amounted to 3.6e-05 s⁻¹.
